# Source: patent US11407825B2, “NaPi2b-targeted polymer antibody-drug conjugates and methods of use thereof” (Mersana Therapeutics, Inc., priority 2018, dated 2022)
# B1: XMT-1536: about 10-15 molecules of auristatin F-hydroxypropyl amide conjugated to a cysteine moiety of NaPi2b monoclonal antibody XMT-1535 via a PHF scaffold (conjugate, chains of the INN, looked up)
# VH: QVQLVQSGAEVVKPGASVKMSCKASGYTFTGYNIHWVKQAPGQGLEWIGAIYPGNGDTSYKQKFRGRATLTADTSTSTVYMELSSLRSEDSAVYYCARGETARATFAYWGQGTLVTVSS
# VL: DIQMTQSPSSLSASVGDRVTITCSASQDIGNFLNWYQQKPGKTVKVLIYYTSSLYSGVPSRFSGSGSGTDYTLTISSLQPEDFATYYCQQYSKLPLTFGQGTKLELK
# modifications: auristatin F-hydroxypropyl amide via PHF scaffold
# notes: about 10-15 molecules of auristatin F-hydroxypropyl amide conjugated to a cysteine moiety of NaPi2b monoclonal antibody XMT-1535 via a PHF scaffold
# Assay: Plasma PK profile in patients dosed with XMT-1536
# Format: in vivo, human
# Settings: 30 patients, 3 to 40 mg/m^2, total antibody, conjugated drug, free drug, AF
# Experimental: The PK profile of the active ingredient of XMT-1536, its release product and selected metabolites are determined for each patient by non-compartmental analysis using standard PK software (e.g., Phoenix WinNonlin). PK parameters per patient include time of maximum observed concentration (tmax), maximum concentration (Cmax), and area under the concentration curve for the last measurable concentration (AUC0-last). When the terminal elimination phase is identified, additional parameters such as elimination half-life, clearance, and volume of distribution are determined.
# The plasma PK profile for the analytes (total antibody; conjugated drug (AF-HPA); free drug (AF-HPA) and the drug metabolite auristatin F (AF)) was determined in blood samples from 30 patients (3 mg/m^2, n=1; 6 mg/m^2, n=1; 12 mg/m^2, n=7; 20 mg/m^2, n=15; 30 mg/m^2, n=5; 40 mg/m^2, n=1). […] The PK characteristics is consistent with that reported for other approved antibody-drug conjugates or those currently in clinical development.
molecule,measurement,value
B1,"exposure with increasing doses, normalized to dose",nearly dose proportional
